Laboratory results reported in publication PMC3278561 (Plant Cell Reports, 2011).

Target: the molecule itself
Assay: transmission electron microscopy

B1: plant-derived Norwalk virus capsid protein (NVCP), assembled as virus-like particles (VLP) (natural protein)
chain: MMMASKDATSSVDGASGAGQLVPEVNASDPLAMDPVAGSSTAVATAGQVNPIDPWIINNFVQAPQGEFTISPNNTPGDVLFDLSLGPHLNPFLLHLSQMYNGWVGNMRVRIMLAGNAFTAGKIIVSCIPPGFGSHNLTIAQATLFPHVIADVRTLDPIEVPLEDVRNVLFHNNDRNQQTMRLVCMLYTPLRTGGGTGDSFVVAGRVMTCPSPDFNFLFLVPPTVEQKTRPFTLPNLPLSSLSNSRAPLPISSMGISPDNVQSVQFQNGRCTLDGRLVGTTPVSLSHVAKIRGTSNGTVINLTELDGTPFHPFEGPAPIGFPDLGGCDWHINMTQFGHSSQTQYDVDTTPDTFVPHLGSIQANGIGSGNYVGVLSWISPPSHPSGSQVDLWKIPNYGSSITEATHLAPSVYPPGFGEVLVFFMSKMPGPGAYNLPCLLPQEYISHLASEQAPTVGEAALLHYVDPDTGRNLGEFKAYPDGFLTCVPNGASSGPQQLPINGVFVFVSWVSRFYQLKPVGTASSARGRLGLRR
binding result: binds
